T1: TgSlyDser-Her3
T1 chain: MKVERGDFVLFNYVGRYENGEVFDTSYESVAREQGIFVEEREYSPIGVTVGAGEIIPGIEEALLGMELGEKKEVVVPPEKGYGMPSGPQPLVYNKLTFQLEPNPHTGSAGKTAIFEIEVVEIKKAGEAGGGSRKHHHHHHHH

T2: TtSlyDcys-Her3
T2 chain: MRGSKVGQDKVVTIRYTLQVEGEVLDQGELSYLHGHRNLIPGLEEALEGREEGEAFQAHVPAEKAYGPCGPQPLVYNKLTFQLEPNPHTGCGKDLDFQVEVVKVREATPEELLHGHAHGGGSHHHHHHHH

T3: TgSlyDΔIF
T3 construct: negative control scaffold without insert (Thermococcus gammatolerans SlyD); also called TgSlyDAIF
T3 chain: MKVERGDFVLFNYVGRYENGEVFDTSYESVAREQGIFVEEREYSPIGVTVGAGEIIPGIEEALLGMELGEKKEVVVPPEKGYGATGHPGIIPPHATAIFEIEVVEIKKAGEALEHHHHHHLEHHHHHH

T4: human recombinant HER4 Extracellular Domain (HER4 ECD) (human, UniProt Q15303 26-651)
T4 sequence: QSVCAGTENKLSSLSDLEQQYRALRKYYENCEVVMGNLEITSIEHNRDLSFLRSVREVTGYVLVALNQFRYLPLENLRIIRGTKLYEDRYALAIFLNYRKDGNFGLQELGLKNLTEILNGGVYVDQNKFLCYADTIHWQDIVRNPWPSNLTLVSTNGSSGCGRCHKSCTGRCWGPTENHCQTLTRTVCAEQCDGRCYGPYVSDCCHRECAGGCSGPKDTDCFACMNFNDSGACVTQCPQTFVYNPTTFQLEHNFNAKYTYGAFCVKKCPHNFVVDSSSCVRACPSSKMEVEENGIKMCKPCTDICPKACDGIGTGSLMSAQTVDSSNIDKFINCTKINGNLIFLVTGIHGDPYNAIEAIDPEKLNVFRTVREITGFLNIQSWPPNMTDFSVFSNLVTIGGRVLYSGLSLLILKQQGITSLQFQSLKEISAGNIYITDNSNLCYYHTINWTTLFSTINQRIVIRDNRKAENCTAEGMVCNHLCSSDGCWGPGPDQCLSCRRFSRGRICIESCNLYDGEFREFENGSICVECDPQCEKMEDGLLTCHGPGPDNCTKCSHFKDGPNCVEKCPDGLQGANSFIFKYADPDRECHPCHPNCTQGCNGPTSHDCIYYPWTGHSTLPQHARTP

T5: TgSlyDcys-Her3
T5 chain: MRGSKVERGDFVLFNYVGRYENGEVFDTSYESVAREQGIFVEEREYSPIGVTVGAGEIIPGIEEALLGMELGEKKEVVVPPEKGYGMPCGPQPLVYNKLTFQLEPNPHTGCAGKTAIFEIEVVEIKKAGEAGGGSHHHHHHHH

T6: TtSlyDcas
T6 construct: negative control scaffold without the HER3 β-hairpin
T6 chain: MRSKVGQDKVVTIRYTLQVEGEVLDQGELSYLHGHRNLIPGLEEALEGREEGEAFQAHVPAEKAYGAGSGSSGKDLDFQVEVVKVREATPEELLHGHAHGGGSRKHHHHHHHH

T7: TtSlyDcas-Her3
T7 chain: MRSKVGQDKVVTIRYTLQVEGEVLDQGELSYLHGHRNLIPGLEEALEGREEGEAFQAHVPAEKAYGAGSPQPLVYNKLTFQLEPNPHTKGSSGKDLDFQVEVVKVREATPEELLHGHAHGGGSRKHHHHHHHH

T8: HER1 (EGFR) ECD peptide hairpin, overlapping immobilized 15-mer peptides (human, UniProt P00533 265-283, limits assumed)
T8 construct: domain: peptide hairpin (β-hairpin); CelluSpots 15-mer library; cysteines replaced by serines; also called hairpin motive in EGFR
T8 peptide (looked up): PPLMLYNPTTYQMDVNPEG

T9: HER2 ECD peptide hairpin, overlapping immobilized 15-mer peptides (human, UniProt P04626 269-287, limits assumed)
T9 construct: domain: peptide hairpin (β-hairpin); CelluSpots 15-mer library; cysteines replaced by serines; also called hairpin motive in the HER2 ECD
T9 peptide (looked up): PALVTYNTDTFESMPNPEG


Experiments:
[1] = biological target: T10, SBP-tagged HER3-ECD (human, UniProt P21860 20-643); assay: time-resolved fluorescence, 10 nM Eu-labelled Heregulin-beta on plate-bound SBP-tagged HER3-ECD
T10 construct: not shown: SBP tag
Method: On the next day the wells were washed three times with washing buffer (PBS+0.05% Tween-20) and blocked with PBS containing 1% BSA for one hour. After another three washes with washing buffer, 40 μl antibody solution (in Delfia Binding Buffer) was added to each well as a 2× stock of the desired final concentrations (10⁻³ to 10³ nM, alternatively 10⁻⁴ to 10² nM). Immediately […] of 20 nM Europium-labeled Heregulin-beta (PeproTech, Cat. #100-03) was added to achieve a final concentration of 10 nM. The plates were incubated on a shaker at room temperature for two hours. Following three washes with Delfia Wash Buffer, Delfia Enhancement Solution was added and incubated on a shaker for 15 minutes (light protected). Finally, the plates were measured in a Tecan Infinite F200 reader using a time-resolved fluorescence measurement protocol.

[2] = biological target: T1, TgSlyDser-Her3; assay: ELISA, antigen coated, hybridoma supernatant
Method: (§1) For the ELISA screening an antigen down format was used. […] Hybridoma Supernatant was added to the plates and incubated for 1 h at room temperature. Bound antibody was detected with a HRP-labeled F(ab′)₂ goat anti-mouse Fcγ (Dianova) and ABTS (Roche) was used as a HRP-substrate.
(§2) As negative controls the scaffold proteins TtSlyDcas and TgSlyDΔIF were used.

[3] = biological target: T2, TtSlyDcys-Her3; assay: ELISA, antigen coated, hybridoma supernatant
Method: as §1, §2

[4] = biological target: T3, TgSlyDΔIF; assay: ELISA, antigen coated, hybridoma supernatant
Method: as §1, §2

[5] = biological target: T4, human recombinant HER4 Extracellular …; assay: ELISA, antigen coated, hybridoma supernatant
Method: as §1, §2

[6] = biological target: T5, TgSlyDcys-Her3; assay: ELISA, antigen coated, hybridoma supernatant
Method: as §1, §2

[7] = biological target: T11, human recombinant HER3 Extracellular Domain (HER3 ECD) (human, UniProt P21860 20-643); assay: ELISA, antigen coated, hybridoma supernatant
T11 construct: 68 kDa; also called human-Her3-ECD
Method: as §1, §2

[8] = biological target: T6, TtSlyDcas; assay: ELISA, antigen coated, hybridoma supernatant
Method: as §1, §2

[9] = biological target: human HER2 Extracellular Domain (HER2 ECD) (human, UniProt P04626 23-652); assay: ELISA, antigen coated, hybridoma supernatant
Method: as §1, §2

[10] = biological target: T12, human HER1 Extracellular Domain (HER1 ECD) (human, UniProt P00533 25-645); assay: ELISA, antigen coated, hybridoma supernatant
T12 construct: also called EGFR ECD
Method: as §1, §2

[11] = biological target: T7, TtSlyDcas-Her3; assay: ELISA, antigen coated, hybridoma supernatant
Method: as §1, §2

[12] = biological target: T13, HER4, full length, on transfected HEK293 cells (human, UniProt Q15303 26-1308); assay: IHC on HEK293 cells transiently transfected with full length HER4
Method: (§3) All selected clones were tested for reactivity and specificity in IHC. […] After an additional fixation in formalin overnight the Agarose blocks were embedded in paraffin. Untransfected HEK293 cells were used as negative controls and treated accordingly to the transfected cells. After paraffin embedding 3 μm thin sections were prepared using a microtome. The sections were mounted on glass microscopy slides and dried for 2 h. All further steps of the immunohistochemical staining procedure were carried out using a Ventana Benchmark XT. The slides were dewaxed and antigen retrieval was performed by applying heat for 1 hour. For antigen retrieval the Ventana buffer CC1 was used. The antibodies were used at a concentration of 1 μg/ml. For the detection of bound antibody the Ventana UltraView detection kit was used.

[13] = biological target: T14, HER1, full length, on transfected HEK293 cells (human, UniProt P00533 25-1210); assay: IHC on HEK293 cells transiently transfected with full length HER1
T14 construct: HEK293 transiently transfected with a plasmid coding for full length HER1; also called EGFR
Method: as §3

[14] = biological target: T15, HER2, full length, on cells (transfected HEK293, MCF7) (human, UniProt P04626 23-1255); assay: IHC on HEK293 cells transiently transfected with full length HER2
Method: as §3

[15] = biological target: T14, HER1, full length, on transfected …; assay: IHC on fixed transfected HEK293 cells
Method: as §3

[16] = biological target: T15, HER2, full length, on cells …; assay: IHC on fixed transfected HEK293 cells
Method: as §3

[17] = biological target: T13, HER4, full length, on transfected …; assay: IHC on fixed transfected HEK293 cells
Method: as §3

[18] = biological target: T11, human recombinant HER3 Extracellular …; assay: SPR Biacore T200, antibody captured, HER3-ECD as analyte, 37 C
[19] = biological target: T16, HER3 ECD-HRG complex (Heregulin-activated Her-3 ECD) (human, UniProt P21860 20-643); assay: SPR, 90 nM Heregulin*Her-3 ECD complex on captured antibody
T16 construct: receptor-ligand complex made by preincubating HER3 ECD with a five-fold molar excess of Heregulin; also called Heregulin/Her-3 ECD; Heregulin-complexed Her-3 ECD

[20] = biological target: T8, HER1 (EGFR) ECD peptide hairpin, …; assay: CelluSpots array of overlapping 15-mer peptides
[21] = biological target: T9, HER2 ECD peptide hairpin, overlapping …; assay: CelluSpots array of overlapping 15-mer peptides

Binder | OD 405 nm [2] [OD] | OD 405 nm [3] [OD] | OD 405 nm [4] [OD] | OD 405 nm [5] [OD] | binding result [5] | OD 405 nm [6] [OD] | OD 405 nm [7] [OD] | OD 405 nm [8] [OD] | OD 405 nm [9] [OD] | binding result [9] | OD 405 nm [10] [OD] | binding result [10] | OD 405 nm [11] [OD] | other results
Europium-labeled Heregulin-beta (PeproTech, Cat. #100-03) (ligand, also: europium label, position not given here, bought fragment; also called HRG; Human Heregulin β-1 fragment (as provided from Preprotech)) SHLVKCAEKEKTFCVNGGECFMVKDLSNPSRYLCKCPNEFTGDRCQNYVMASFYKHLGIEFMEAE |  |  |  |  |  |  |  |  |  |  |  |  |  | binding result [1]: binds
anti-HER3 antibody M-17-07 (antibody, V domains shown, mouse hybridoma clone) VH: EVQLQQSGTVLARPGASVKMSCKASGYSFTSYWIHWVKQRPGQGLEWIGAIYPGNSDTTYNQKFKGKAKLTAVTSASTAYMELSSLTNEDSAVYYCARTGVWTSYYFDYWGQGTTLTVSS VL: DIQMTQSPASLSASVGETVTITCRASENIYSNLAWYQQKQGKSPQLLVYAATNLADGVPSRFSGSGSGTQFSLRINSLQPEDFGSYYCQHFYGTPFTFGTGTKLEIK | 1.4 | 1.53 | 0.021 | 0.03 | no binding | 1.62 | 3.1 | 0.022 | 0.03 | no binding | 0.025 | no binding | 1.4 | binding result [12]: no binding; binding result [13]: no binding; binding result [14]: no binding
anti-HER3 antibody M-17-12 (antibody, V domains shown, mouse hybridoma clone; VH and VL stated identical to those of M-17-02) VH: EVQLQQSGTVLARPGASVKMSCKASGYSFTSYWIHWVKQRPGQGLEWIGAIYPGNSDTTYNQKFKGKAKLTAVTSASTAYMELSSLTNEDSAVYYCARTGVWTSYYFDYWGQGTTLTVSS VL: DIQMTQSPASLSASVGETVTITCRASENIYSNLAWYQQKQGKSPQLLVYAATNLADGVPSRFSGSGSGTQFSLRINSLQPEDFGSYYCQHFYGTPFTFGTGTKLEIK | 1.66 | 1.53 | 0.022 | 0.051 | no binding | 1.37 | 3.06 | 0.022 | 0.023 | no binding | 0.022 | no binding | 1.31 | binding result [15]: no binding (tested: 1 µg/ml); binding result [16]: no binding (tested: 1 µg/ml); binding result [17]: no binding (tested: 1 µg/ml)
anti-HER3 antibody MOR09823 (described in WO2012/22814) (antibody, V domains shown) VH: QVQLVESGGGLVQPGGSLRLSCAASGFTFSSYAMSWVRQAPGKGLEWVSVTGAVGRTYYPDSVKGRFTISRDNSKNTLYLQMNSLRAEDTAVYYCARWGDEGFDIWGQGTLVTVSS VL: DIQMTQSPSSLSASVGDRVTITCRASQGISNWLAWYQQKPGKAPKLLIYGASSLQSGVPSRFSGSGSGTDFTLTISSLQPEDFAVYYCQQYSSFPTTFGQGTKVEIKR |  |  |  |  |  |  |  |  |  |  |  |  |  | Kd [18]: 0.3 nM
anti-HER3/HER4 antibody M-05-74 (antibody, V domains shown, also called M-074; M-5-74) VH: QVQLQQSGAELAKPGASVKMSCKTSGYTLTDYWIHWVKQRPGQGLEWIGYINPYTGYTESNQKFKDKATLTADKSSNTAYIQLSSLTSEDSAVYYCARPYYYGDYWGQGTTLTVSS VL: QIVLTQSPAIMSASPGERVTITCSASSSVSYMHWFQQKPGTSPKLLIYSTSNLASGVPARFSGSGSGTSYSLTISRMEAEDAATYYCQQRSSYPFTFGSGTKLEIK |  |  |  |  |  |  |  |  |  |  |  |  |  | t½ diss [19]: 18 min; binding result [20]: no binding (tested: 1 µg/mL); binding result [21]: no binding (tested: 1 µg/mL)

— patent US20180094062A1 (Hoffmann-La Roche, published 2018)
